Test results: paper PMC3167946 (Vaccine, 2011)

Molecular target: Envelope glycoprotein gp120Bal (HIV-1 isolate BaL (subtype B), clone …, UniProt Q6TAP7, strain)
Assay: ELISA

B1: human mature b12 scFv (scFv, V domains shown)
VH: QVQLVQSGAEVKKPGASVKVSCQASGYRFSNFVIHWVRQAPGQRFEWMGWINPYNGNKEFSAKFQDRVTFTADTSANTAYMELRSLRSADTAVYYCARVGPYSWDDSPQDNYYMDVWGKGTTVIVSS
VL: EIVLTQSPGTLSLSPGERATFSCRSSHSIRSRRVAWYQHKPGQAPRLVIHGVSNRASGISDRFSGSGSGTDFTLTITRVEPEDFALYYCQVYGASSYTFGQGTKLERK
Question: For B1, which EC50 is on record?
Answer: Its EC50 is 0.3 nM.
